Assay results reported in paper PMC6300356, “DNA translocation mechanism of an XPD family helicase”.

Target: T1, DinG (Escherichia coli, UniProt P27296 1-716)
T1 sequence: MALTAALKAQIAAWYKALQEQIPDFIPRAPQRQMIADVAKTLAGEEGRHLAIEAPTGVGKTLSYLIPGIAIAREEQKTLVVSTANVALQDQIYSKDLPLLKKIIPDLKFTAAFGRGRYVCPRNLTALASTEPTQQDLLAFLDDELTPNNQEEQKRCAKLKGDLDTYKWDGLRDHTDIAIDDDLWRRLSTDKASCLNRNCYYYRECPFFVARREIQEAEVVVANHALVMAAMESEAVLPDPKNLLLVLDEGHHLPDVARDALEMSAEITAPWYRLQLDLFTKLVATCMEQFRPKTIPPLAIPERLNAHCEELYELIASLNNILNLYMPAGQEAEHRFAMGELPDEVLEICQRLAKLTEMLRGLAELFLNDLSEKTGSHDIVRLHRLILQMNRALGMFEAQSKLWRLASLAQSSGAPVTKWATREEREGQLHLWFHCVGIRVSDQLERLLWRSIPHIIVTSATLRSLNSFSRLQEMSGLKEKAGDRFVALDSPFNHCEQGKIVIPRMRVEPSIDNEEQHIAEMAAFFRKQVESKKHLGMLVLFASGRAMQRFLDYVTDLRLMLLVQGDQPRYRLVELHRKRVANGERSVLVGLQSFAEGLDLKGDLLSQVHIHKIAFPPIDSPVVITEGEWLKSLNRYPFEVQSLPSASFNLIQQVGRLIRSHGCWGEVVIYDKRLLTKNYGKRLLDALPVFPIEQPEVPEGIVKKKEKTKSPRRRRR
Assay: X-ray crystallography (2.5 A); binary complex, no nucleotide; MST: 25 mM Tris pH 8.0, 200 mM NaCl, 1 mM DTT, 5% glycerol, 25 C, 10 nM ssDNA
Conditions: protein: recombinant; tags: His6-MBP-TEV N-terminal, removed by TEV

TTTTTTTTTTTT (ssDNA) [dT12 (12 base oligo-dT)]
binding result: binds
